Experimental data from article PMC10397247.

Key:
Test in all cases: two-hybrid library CCNG1;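 further: natural log of median RNA to DNA barcode read ratio; higher means stronger binding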
4H338-bA = molecular target: T1, 4H338-bA
T1 chain: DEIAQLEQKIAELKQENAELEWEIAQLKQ

4H607-bA = molecular target: T2, 4H607-bA
T2 chain: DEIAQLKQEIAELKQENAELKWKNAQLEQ

4H717-bA = molecular target: T3, 4H717-bA
T3 chain: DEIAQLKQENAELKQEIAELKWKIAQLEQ

4H754-bA = molecular target: T4, 4H754-bA
T4 chain: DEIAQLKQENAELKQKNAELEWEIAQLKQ

4H967-bA = molecular target: T5, 4H967-bA
T5 chain: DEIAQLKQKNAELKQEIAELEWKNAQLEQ

4H1845-bA = molecular target: T6, 4H1845-bA
T6 chain: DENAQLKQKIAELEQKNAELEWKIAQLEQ

P9A-bH = molecular target: T7, P9A-bH
T7 chain: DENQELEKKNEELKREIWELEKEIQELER

4H72-bA = molecular target: T8, 4H72-bA
T8 chain: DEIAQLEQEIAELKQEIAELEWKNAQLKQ

4H3782-bA = molecular target: T9, 4H3782-bA
T9 chain: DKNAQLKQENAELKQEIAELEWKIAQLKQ

4H797-bA = molecular target: T10, 4H797-bA
T10 chain: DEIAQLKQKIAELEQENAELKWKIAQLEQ

4H3112-bA = molecular target: T11, 4H3112-bA
T11 chain: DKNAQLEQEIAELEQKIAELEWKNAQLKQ

4H687-bA = molecular target: T12, 4H687-bA
T12 chain: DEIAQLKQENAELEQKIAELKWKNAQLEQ

4H918-bA = molecular target: T13, 4H918-bA
T13 chain: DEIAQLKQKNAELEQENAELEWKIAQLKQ

4H3855-bA = molecular target: T14, 4H3855-bA
T14 chain: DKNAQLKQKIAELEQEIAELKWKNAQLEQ

4H1828-bA = molecular target: T15, 4H1828-bA
T15 chain: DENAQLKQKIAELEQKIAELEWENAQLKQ

4H2442-bA = molecular target: T16, 4H2442-bA
T16 chain: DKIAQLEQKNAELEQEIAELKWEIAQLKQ

4H331-bA = molecular target: T17, 4H331-bA
T17 chain: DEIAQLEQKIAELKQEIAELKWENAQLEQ

4H2576-bA = molecular target: T18, 4H2576-bA
T18 chain: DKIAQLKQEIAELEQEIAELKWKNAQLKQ

4H908-bA = molecular target: T19, 4H908-bA
T19 chain: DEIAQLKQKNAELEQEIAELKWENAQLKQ

4H883-bA = molecular target: T20, 4H883-bA
T20 chain: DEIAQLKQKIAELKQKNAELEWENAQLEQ

4H2618-bA = molecular target: T21, 4H2618-bA
T21 chain: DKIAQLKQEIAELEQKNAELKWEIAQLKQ

4H3427-bA = molecular target: T22, 4H3427-bA
T22 chain: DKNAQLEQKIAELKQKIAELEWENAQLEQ

4H4001-bA = molecular target: T23, 4H4001-bA
T23 chain: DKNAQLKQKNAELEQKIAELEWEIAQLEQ

4H568-bA = molecular target: T24, 4H568-bA
T24 chain: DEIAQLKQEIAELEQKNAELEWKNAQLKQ

4H3354-bA = molecular target: T25, 4H3354-bA
T25 chain: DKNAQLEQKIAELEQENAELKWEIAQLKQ

4H953-bA = molecular target: T26, 4H953-bA
T26 chain: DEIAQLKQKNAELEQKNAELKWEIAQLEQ

4H2667-bA = molecular target: T27, 4H2667-bA
T27 chain: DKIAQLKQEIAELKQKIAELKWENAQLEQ

4H348-bA = molecular target: T28, 4H348-bA
T28 chain: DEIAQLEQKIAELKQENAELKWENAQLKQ

4H454-bA = molecular target: T29, 4H454-bA
T29 chain: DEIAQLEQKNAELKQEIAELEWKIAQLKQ

4H3185-bA = molecular target: T30, 4H3185-bA
T30 chain: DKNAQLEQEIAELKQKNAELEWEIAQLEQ

4H492-bN = molecular target: T31, 4H492-bN
T31 chain: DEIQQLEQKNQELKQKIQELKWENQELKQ

4H2729-bA = molecular target: T32, 4H2729-bA
T32 chain: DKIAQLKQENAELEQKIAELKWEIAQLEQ

P4A-bH = molecular target: T33, P4A-bH
T33 chain: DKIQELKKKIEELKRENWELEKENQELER

P1A-bH = molecular target: T34, P1A-bH
T34 chain: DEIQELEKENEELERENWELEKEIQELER

P6A-bH = molecular target: T35, P6A-bH
T35 chain: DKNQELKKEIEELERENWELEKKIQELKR

P2A-bH = molecular target: T36, P2A-bH
T36 chain: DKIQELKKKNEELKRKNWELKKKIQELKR

P7A-bH = molecular target: T37, P7A-bH
T37 chain: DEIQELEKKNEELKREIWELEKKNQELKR

P3A-bH = molecular target: T38, P3A-bH
T38 chain: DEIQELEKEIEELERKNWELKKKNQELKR

P8A-bH = molecular target: T39, P8A-bH
T39 chain: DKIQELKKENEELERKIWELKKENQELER

P12A-bH = molecular target: T40, P12A-bH
T40 chain: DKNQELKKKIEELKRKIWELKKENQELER

P5A-bH = molecular target: T41, P5A-bH
T41 chain: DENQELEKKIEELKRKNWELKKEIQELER

Binder: DENAQLKQKIAELEQKIAELEWENAQLKQ [4H1828-bA]
- interaction score (4H338-bA): -1.89
- interaction score (4H607-bA): -0.523
- interaction score (4H717-bA): -1.09
- interaction score (4H754-bA): -1.2
- interaction score (4H967-bA): -0.0426
- interaction score (4H1845-bA): -0.511
- interaction score (P9A-bH): 0.475
- interaction score (4H72-bA): -0.902
- interaction score (4H3782-bA): 0.85
- interaction score (4H797-bA): -0.153
- interaction score (4H3112-bA): 1.15
- interaction score (4H687-bA): -0.0353
- interaction score (4H918-bA): -0.412
- interaction score (4H3855-bA): -0.259
- interaction score (4H1828-bA): 0.663
- interaction score (4H2442-bA): 0.499
- interaction score (4H331-bA): -0.739
- interaction score (4H2576-bA): 0.0647
- interaction score (4H908-bA): -0.276
- interaction score (4H883-bA): -0.928
- interaction score (4H2618-bA): 0.132
- interaction score (4H3427-bA): 0.974
- interaction score (4H4001-bA): -0.562
- interaction score (4H568-bA): 0.727
- interaction score (4H3354-bA): 0.0682
- interaction score (4H953-bA): -0.126
- interaction score (4H2667-bA): 0.0606
- interaction score (4H348-bA): -0.144
- interaction score (4H454-bA): -1.06
- interaction score (4H3185-bA): -0.351
- interaction score (4H492-bN): -2.71
- interaction score (4H2729-bA): -0.137

Binder: DKNQELKKKIEELKRKIWELKKENQELER [P12A-bH]
- interaction score (P4A-bH): -0.357
- interaction score (P9A-bH): 0.667
- interaction score (P1A-bH): 0.256
- interaction score (P6A-bH): 0.389
- interaction score (P2A-bH): -1.23
- interaction score (P7A-bH): -0.514
- interaction score (P3A-bH): 1.64
- interaction score (P8A-bH): 0.274
- interaction score (P12A-bH): -0.588
- interaction score (P5A-bH): -2.21
